The values that follow come from publication PMC9224634, “Noninvasive Mapping of Angiotensin Converting Enzyme-2 in Pigeons Using Micro Positron Emission Tomography” (Life, 2022).

For series [1], the system named is ACE2. The experiment in a line: in vivo. Particulars: female, iv, 15 MBq. The protocol: Injection route: Chloral hydrate 10% was used for intramuscular anesthesia.
Micro PET/CT imaging: Four healthy pigeons (female) were injected with 15 MBq ^68Ga-HZ20 through the pterygoid vein, and then dynamic imaging was performed for 40 min to observe the dynamic distribution of the probe in the body. The images were acquired for 30 min, 40 min and 60 min, with a single PET scan time of 600 s. The Avator software was used to display the images, outline the region of interest for the main organs, record the maximum standard uptake values for the outlined areas, and calculate the dynamic changes in SUVmax for different organs. At the end of the 60 min imaging, the pigeons were euthanized and the main organs were obtained for in vitro imaging.

For series [2], the target named is ACE2. On the set-up: method as in PMID 34174177. Particulars: cited from earlier work.
The target in series [3] is ACE2. On the set-up: method as in earlier work. The note with it: ACE2-specific peptide inhibitor; ref 10 (Huang et al.); cited from earlier work.

pKd, pKi: −log10 of the molar value.

A word on the pKd: it is the negative decadic logarithm of the Kd, by convention in mol/L. One may read the pKi as the negative decadic logarithm of the Ki, by convention in mol/L.

Regarding `CC(C)C[C@@H]1NC(=O)[C@@H]2CCCN2C(=O)[C@H](CO)NC(=O)[C@@H](NC(=O)[C@H](Cc2c[nH]cn2)NC(=O)[C@H](CO)NC(=O)[C@H](Cc2ccc(O)cc2)NC(=O)[C@H](CC(=O)O)NC(=O)CNC(=O)CN2CCN(CC(=O)O)CCN(CC(=O)O)CCN(CC(=O)O)CC2)CSSC[C@@H](C(=O)N[C@H](C(=O)N[C@@H](Cc2ccc(O)cc2)C(=O)N2CCC[C@H]2C(=O)N[C@@H](CC(=O)O)C(=O)N2CCC[C@H]2C(=O)N[C@@H](CCC(=O)O)C(=O)NCC(=O)NCC(=O)NCC(N)=O)[C@@H](C)O)NC(=O)[C@H](CCCCN)NC(=O)[C@H](Cc2c[nH]c3ccccc23)NC(=O)[C@H](Cc2c[nH]c3ccccc23)NC(=O)[C@@H]2CCCN2C(=O)[C@H](Cc2ccc(O)cc2)NC(=O)[C@H](Cc2ccc(O)cc2)NC(=O)[C@H](CCCNC(=N)N)NC1=O` [68Ga-HZ20, metal not drawn], the SUV at 40 min in series [1] (SUVmax heart, final) came to 0.84 SUV; in series [1] (liver uptake (SUVmax)) it was 2.51 SUV; in series [1] (stomach uptake (SUVmax), peak) it was 0.63 SUV. In series [1] (SUVmax heart, initial), this compound registered an SUV at 0 h of 3.08 SUV. Moreover, the SUV at 20 min in series [1] (SUVmax kidney) was determined as 6.95 SUV; in series [1] (SUVmax lung), 1.11 SUV. In addition, the SUV at 1 h in series [1] (kidney uptake (SUV)) was determined as 3.05 SUV; in series [1] (liver uptake (SUV)), 0.51 SUV; in series [1] (lung uptake (SUV)), 0.41 SUV; in series [1] (stomach uptake (SUV)), 0.52 SUV. The compound also returned an SUV in series [1] (liver uptake (SUVmax), initial) of 0.91 SUV.

In the case of “Ac-GDYSHCSPLRYYPWWKCTYPDPEGGG-NH2 (disulfide) [DX600]”, the pKd in series [2] was 7.01. Further, the pKi in series [3] is 8.55.
